Measurements taken from patent US20220363754A1 (SHANGHAI JUNSHI BIOSCIENCES, published 2022).
Each block holds one binder with its values, some of them ahead of it.

Legend:
[1] = target: T1, recombinant protein hTIGIT-ECD-mFC (human; mouse, UniProt Q495A1 24-155); test: ELISA, human TIGIT-ECD-mFc coated at 0.5 ug/mL, anti-IgG4-HRP
T1 construct: range 24-155; Expressed in 293E cells; also called human TIGIT-ECD-mFc; not shown: murine IgG2a Fc domain of the vector MX2-mFc
T1 sequence (looked up): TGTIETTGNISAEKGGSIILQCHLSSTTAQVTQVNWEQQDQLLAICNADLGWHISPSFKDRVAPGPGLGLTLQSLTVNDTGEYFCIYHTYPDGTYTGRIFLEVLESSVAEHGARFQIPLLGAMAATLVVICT
Experimental: (§1) The solution in wells was then discarded, and the wells were washed 3 times with a washing buffer and blocked for 60 minutes with PBS containing 2% BSA. After the plate was washed 3 times with the washing buffer, humanized antibody dilutions at different concentrations were added. The antibodies were incubated at 37° C. for 60 minutes, and then the plate was washed 3 times with the washing buffer and added with 5000-fold diluted anti-IgG4-HRP. The system was incubated at 37° C. for 30 minutes, and then washed three times with the washing buffer and added with 100 μL of TMB substrate for color development. The system was incubated at room temperature for 30 minutes, and the reaction was then terminated with 100 μL of 2 M hydrochloric acid solution. The absorbance at 450 nm was measured by a plate reader.

[2] = target: T2, human TIGIT on Jurkat reporter cells (Jurkat/NFAT-Luc/hPD-1-hTIGIT) (human, UniProt Q495A1 22-244); test: cell-based or functional assay
T2 sequence (looked up): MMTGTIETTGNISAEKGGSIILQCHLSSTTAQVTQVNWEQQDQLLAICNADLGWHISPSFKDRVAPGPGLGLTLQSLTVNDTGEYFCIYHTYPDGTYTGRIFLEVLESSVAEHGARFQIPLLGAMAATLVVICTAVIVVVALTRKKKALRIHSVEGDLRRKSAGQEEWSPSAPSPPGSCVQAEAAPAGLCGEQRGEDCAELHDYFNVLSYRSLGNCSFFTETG

[3] = target: T1, recombinant protein hTIGIT-ECD-mFC; test: ELISA, human TIGIT-ECD-mFc coated at 1 ug/mL, anti-IgG4-HRP
Experimental: as §1, with “chimeric” for “humanized”

[4] = target: T2, human TIGIT on Jurkat reporter cells …; test: cell-based or functional assay; remark: listed apart in the source
[5] = target: T3, Cyno TIGIT-Fc (cynomolgus monkey, UniProt A0A7N9I9V4 89-209); test: SPR (Biacore T200), antibody captured by anti-human Fc, antigen in solution, 1:1 model
T3 construct: extracellular domain; the whole named entry is XP 015300912.1; also called cynomolgus monkey TIGIT; cynoTIGIT-ECD; not shown: Fc part is not described
T3 sequence (A0A7N9I9V4 entry or part of it): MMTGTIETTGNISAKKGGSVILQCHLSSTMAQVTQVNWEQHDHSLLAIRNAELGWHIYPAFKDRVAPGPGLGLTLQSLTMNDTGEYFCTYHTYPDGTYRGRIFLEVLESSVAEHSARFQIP
Experimental: (§2) An S series CM5 chip (GE) was first loaded onto the instrument, and 40 μg/mL of goat anti-human Fc fragment antibody (Jackson ImmuneResearch) dissolved in sodium acetate-acetic acid buffer (pH 5.0) was ready to be coupled to the chip surface. The buffer used for the detection of antibody-antigen binding was HBS-EP+ from GE Healthcare. The antibodies hu3 and hu20 were each diluted to 8 μg/mL and captured on the chip surface. […] The resulting data were analyzed with a 1:1 binding model by using Biacore T200 Evaluation Software 3.0.

[6] = target: T4, hTIGIT-Fc (human, UniProt Q495A1 24-155); test: as above
T4 construct: range 24-155; also called human TIGIT; not shown: Fc part of the Biacore antigen is not described (possibly the murine IgG2a Fc of hTIGIT-ECD-mFC)
T4 sequence (looked up): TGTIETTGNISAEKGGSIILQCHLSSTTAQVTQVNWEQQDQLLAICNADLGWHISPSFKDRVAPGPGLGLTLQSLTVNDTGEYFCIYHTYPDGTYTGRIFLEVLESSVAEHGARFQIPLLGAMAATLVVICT
Experimental: as §2

[7] = target: T5, hTIGIT (FACS blocking assay of Example 10) (human, UniProt Q495A1 22-141, limits assumed); test: competitive FACS, antibody titrated from 30 ug/mL in 3-fold steps, blocking of the binding of hTIGIT to its ligand hPVR on the cell surface, MFI; unit taken from the axis Log[concentration] ng/mL
T5 construct: The protocol names only PVR-mFC and 293F-hPVR cells; which of them should be TIGIT cannot be told
T5 sequence (looked up): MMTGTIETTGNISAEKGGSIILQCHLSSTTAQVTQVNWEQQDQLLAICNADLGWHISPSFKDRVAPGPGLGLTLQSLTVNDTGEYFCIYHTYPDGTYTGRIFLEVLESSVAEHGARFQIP
Experimental: Briefly, antibody dilutions at different concentrations (an initial concentration of 30 μg/mL, 3-fold titration) were each mixed with PVR-mFC (1 ug/mL, 50 μL) and incubated for 30 minutes at room temperature. The mixture was then incubated with cell suspension (stable 293F-hPVR cell line, 2.5×10⁴ cells/well) for 15 minutes at 37° C. After 3 times of elution with PBS, 100 μL of goat anti-human IgG-PE antibody was added, and the system was incubated for 30 minutes in the dark. After 3 times of elution with PBS, detection was performed by FACS. Viable cells were gated on the basis of FSC/SSC, and their geometric mean fluorescence intensity was measured.

B2: humanized antibody hu69 (antibody, V domains shown)
VH: QVQLVQSGAEVKKPGASVKVSCKASGYTFTNYWILWIRQAPGQGLEWMGDIYPGGHYTNYNEKFQGRVTLTADTSSSTAYMELSRLRSDDTAVYYCTRYYGPYAMDYWGQGTLVTVSS
VL: DIVMTQSPLSLPVTPGEPASISCRSSQSLLYNSNQKNYLAWYLQKPGQSPQLLIYWASTGESGVPDRFSGSGSGTDFTLKISRVEAEDVGVYYCQQYYSYPFTFGQGTKLEIK
notes: Humanized from 23O20; detected with anti-IgG4-HRP in the ELISA, constant regions not otherwise stated
EC50 [1]: 0.0107 µg/mL
EC50, luciferase reporter gene experiment (T cell activation) [2]: 0.103 µg/mL

B5: hybridoma antibody 23O20 (antibody, V domains shown)
VH: QVQLQQSGDELVRPGTSVKVSCQAAGYTFTNYWILWIKQRPRHGLEWIGDIYPGGHYTNYNEKFKGKATLTADTSSSTAYMQLNSLTSEDSAIYYCTRYYGPYAMDYWGQGTSVTVSS
VL: DIVMSQSPSSLPVSVGEKVTMSCKSSQSLLYNSNQKNYLAWYQQIPGQSPKLLIYWASTGESGVPDRFTGSGSGTDFTLTISSVKAEDLAVYYCQQYYSYPFTFGSGTKLEIK
RLU fold change, NFAT-luciferase reporter, antibody alone [4]: 2.3 fold
RLU fold change, NFAT-luciferase reporter, with JS001 [4]: 2.3 fold

B6: hybridoma antibody 2O18 (antibody, V domains shown)
VH: EVQLQQSGPELVKPGASVKISCKTSGYAFTEYTMHWVKQSHGKSLEWIGGINPNTGGTTYNQKFKGKATLTVDKSSSTAYMEFRSLTSEDSAVYYCAKLLRLMYYFDYWGQGTTLTVSS
VL: DIVMTQSHKFMSTSVGDRVSITCKASQDVRTAVAWYQQKPGQSPKLLIYSASYRYTGVPDRFTGSGSGTDFTFTISSVQAEDLALYYCHQHYITPWTFGGGTKLEIK
RLU fold change, NFAT-luciferase reporter (Jurkat hPD-1/hTIGIT + CHO hPD-L1/hPVRL2), with JS001 [4]: 3.3 fold
RLU fold change, NFAT-luciferase reporter, antibody alone [4]: 6.3 fold

B7: chimeric antibody ch1 (antibody, human IgG4, V domains shown)
VH: EVQLQQSGPELVKPGASVKISCKTSGYAFTEYTMHWVKQSHGKSLEWIGGINPNTGGTTYNQKFKGKATLTVDKSSSTAYMEFRSLTSEDSAVYYCAKLLRLMYYFDYWGQGTTLTVSS
VL: DIVMTQSHKFMSTSVGDRVSITCKASQDVRTAVAWYQQKPGQSPKLLIYSASYRYTGVPDRFTGSGSGTDFTFTISSVQAEDLALYYCHQHYITPWTFGGGTKLEIK
notes: IgG4 chimeric antibody; also called 2O18-ch-HC / 2O18-ch-LC
EC50 [3]: 0.0325 µg/mL
EC50, luciferase reporter gene experiment (T cell activation) [2]: 0.0766 µg/mL

B8: humanized antibody hu3 (antibody, human IgG4 S228P, kappa, V domains shown)
VH: QVQLVQSGAEVKKPGASVKVSCKTSGYAFTEYTMHWVRQAPGQGLEWMGGINPNTGGTTYNQKFQGRVTLTVDKSSSTAYMELSRLRSDDTVVYYCAKLLRLMYYFDYWGQGTLVTVSS
VL: DIVMTQSPDSLAVSLGERATINCKASQDVRTAVAWYQQKPGQPPKLLIYSASYRYTGVPDRFSGSGSGTDFTLTISSLQAEDVAVYYCHQHYITPWTFGGGTKVEIKR
notes: Humanized from 2O18
Kd [5]: 1.42 nM
koff [5]: 0.0003 s⁻¹
kon [5]: 211000 M⁻¹ s⁻¹
Kd [6]: 0.13 nM
koff [6]: 0.000121 s⁻¹
kon [6]: 935000 M⁻¹ s⁻¹
IC50 [7]: 0.0693 µg/mL
EC50 [1]: 0.0232 µg/mL
EC50, luciferase reporter gene experiment (T cell activation) [2]: 0.14 µg/mL

B9: humanized antibody hu20 (antibody, human IgG4 S228P, kappa, V domains shown)
VH: QVQLVQSGAEVKKPGASVKVSCKTSGYAFTEYTMHWVRQAPGKGLEWMGGINPNTGGTTYNQKFQGRVTLTVDKSSSTAYMELSSLRSEDTVVYYCAKLLRLMYYFDYWGQGTLVTVSS
VL: DIQMTQSPSSLSASVGDRVTITCQASQDVRTAVAWYQQKPGKAPKLLIYSASYRYTGVPSRFSGSGSGTDFTFTISSLQPEDIATYYCHQHYITPWTFGGGTKVEIKR
notes: Humanized from 2O18
Kd [5]: 1.45 nM
koff [5]: 0.000329 s⁻¹
kon [5]: 226000 M⁻¹ s⁻¹
Kd [6]: 0.209 nM
koff [6]: 0.000163 s⁻¹
kon [6]: 777000 M⁻¹ s⁻¹
IC50 [7]: 0.0587 µg/mL
EC50 [1]: 0.0378 µg/mL
EC50, luciferase reporter gene experiment (T cell activation) [2]: 0.0424 µg/mL

The remaining lines, values ahead:

EC50 [1]: 0.0086 µg/mL
EC50, luciferase reporter gene experiment (T cell activation) [2]: 0.109 µg/mL
B1: humanized antibody hu62 (antibody, V domains shown)
VH: QVQLVQSGAEVKKPGASVKVSCKASGYTFTNYWILWIRQAPGQGLEWMGDIYPGGHYTNYNEKFQGRVTLTADTSSSTAYMELSSLRSEDTAVYYCTRYYGPYAMDYWGQGTLVTVSS
VL: DIQMTQSPSSLSASVGDRVTITCRSSQSLLYNSNQKNYLAWYQQKPGKAPKLLIYWASTGESGVPSRFSGSGSGTDFTLTISSLQPEDFATYYCQQYYSYPFTFGQGTKVEIK
notes: as for B2

EC50 [1]: 0.00983 µg/mL
EC50, luciferase reporter gene experiment (T cell activation) [2]: 0.0884 µg/mL
B3: humanized antibody hu81 (antibody, V domains shown)
VH: QVQLVQSGAEVKKPGASVKVSCKASGYTFTNYWILWIRQAPGQGLEWMGDIYPGGHYTNYNEKLQGRVTLTADTSSSTAYMELRSLRSDDTAVYYCTRYYGPYAMDYWGQGTLVTVSS
VL: DIVMTQSPLSLPVTPGEPASISCRSSQSLLYNSNQKNYLAWYLQKPGQSPQLLIYWASTGESGVPDRFSGSGSGTDFTLKISRVEAEDVGVYYCQQYYSYPFTFGQGTKVEIK
notes: as for B2

EC50 [3]: 0.00893 µg/mL
EC50, luciferase reporter gene experiment (T cell activation) [2]: 0.104 µg/mL
B4: chimeric antibody ch4 (antibody, human IgG4, V domains shown)
VH: QVQLQQSGDELVRPGTSVKVSCQAAGYTFTNYWILWIKQRPRHGLEWIGDIYPGGHYTNYNEKFKGKATLTADTSSSTAYMQLNSLTSEDSAIYYCTRYYGPYAMDYWGQGTSVTVSS
VL: DIVMSQSPSSLPVSVGEKVTMSCKSSQSLLYNSNQKNYLAWYQQIPGQSPKLLIYWASTGESGVPDRFTGSGSGTDFTLTISSVKAEDLAVYYCQQYYSYPFTFGSGTKLEIK
notes: IgG4 chimeric antibody; also called 23O20-ch-HC / 23O20-ch-LC
